Source: paper PMC9482650, “Quantitative fragmentomics allow affinity mapping of interactomes” (Nature Communications, 2022)

Assays:
Assay in all cases: holdup assay
Design in all cases: key: below the threshold = too weak to quantify, mostly under pKd 3.1 to 4
Conditions in all cases: plain residues with an end cap or a label only (N-terminal biotin on a linker: ttds)
INTU, Q9ULD6 = biological target: T1, INTU, Q9ULD6
T1 sequence (Q9ULD6 180-273, limits assumed, looked up): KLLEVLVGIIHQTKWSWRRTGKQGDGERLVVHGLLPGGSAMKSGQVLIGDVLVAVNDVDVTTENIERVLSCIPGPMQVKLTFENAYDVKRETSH

LNX2_4, Q8N448 = biological target: T2, LNX2_4, Q8N448
T2 sequence (Q8N448 595-690, limits assumed, looked up): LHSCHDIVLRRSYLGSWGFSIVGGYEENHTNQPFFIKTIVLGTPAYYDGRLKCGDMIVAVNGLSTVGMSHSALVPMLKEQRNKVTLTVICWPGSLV

MAGI3_5, Q5TCQ9 = biological target: MAGI3_5, Q5TCQ9
Sequence of MAGI3_5, Q5TCQ9 (Q5TCQ9 847-941): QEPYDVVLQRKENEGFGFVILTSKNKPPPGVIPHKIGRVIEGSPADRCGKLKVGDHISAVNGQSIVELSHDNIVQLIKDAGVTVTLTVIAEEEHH

MLLT4, P55196 = biological target: T3, MLLT4, P55196
T3 sequence (P55196 1002-1103, limits assumed, looked up): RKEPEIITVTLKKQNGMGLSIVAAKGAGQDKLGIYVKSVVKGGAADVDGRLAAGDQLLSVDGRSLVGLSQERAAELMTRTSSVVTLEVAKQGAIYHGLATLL

MPDZ_11, O75970 = biological target: T4, MPDZ_11, O75970
T4 sequence (O75970 1720-1817, limits assumed, looked up): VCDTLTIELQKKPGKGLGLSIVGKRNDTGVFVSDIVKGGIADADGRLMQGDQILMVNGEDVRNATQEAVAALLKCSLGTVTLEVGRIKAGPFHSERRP

NHERF3_2, Q5T2W1 = biological target: T5, NHERF3_2, Q5T2W1
T5 sequence (Q5T2W1 129-225, limits assumed, looked up): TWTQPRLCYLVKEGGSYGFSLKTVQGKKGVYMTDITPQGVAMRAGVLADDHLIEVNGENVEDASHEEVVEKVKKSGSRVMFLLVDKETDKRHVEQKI

O00233 = biological target: O00233
O00560 = biological target: O00560
O60759 = biological target: O60759
PARD6G, Q9BYG4 = biological target: T6, PARD6G, Q9BYG4
T6 sequence (Q9BYG4 153-261, limits assumed, looked up): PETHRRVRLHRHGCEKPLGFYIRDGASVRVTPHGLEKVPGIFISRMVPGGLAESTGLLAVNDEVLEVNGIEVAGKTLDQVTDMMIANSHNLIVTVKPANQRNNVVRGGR

PDLIM3, Q53GG5 = biological target: T7, PDLIM3, Q53GG5
T7 sequence (Q53GG5 1-94, limits assumed, looked up): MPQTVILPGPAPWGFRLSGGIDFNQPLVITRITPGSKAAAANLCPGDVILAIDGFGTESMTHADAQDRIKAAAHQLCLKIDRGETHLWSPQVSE

PDZD11, Q5EBL8 = biological target: T8, PDZD11, Q5EBL8
T8 sequence (Q5EBL8 42-139, limits assumed, looked up): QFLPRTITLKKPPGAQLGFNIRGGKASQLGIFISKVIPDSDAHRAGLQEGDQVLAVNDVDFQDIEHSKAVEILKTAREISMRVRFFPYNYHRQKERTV

PDZD2_6, O15018 = biological target: T9, PDZD2_6, O15018
T9 sequence (O15018 2745-2839, limits assumed, looked up): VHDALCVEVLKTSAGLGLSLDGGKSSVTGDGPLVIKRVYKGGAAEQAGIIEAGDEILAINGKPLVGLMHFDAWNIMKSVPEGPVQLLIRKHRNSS

PDZD8, Q8NEN9 = biological target: T10, PDZD8, Q8NEN9
T10 sequence (Q8NEN9 361-459, limits assumed, looked up): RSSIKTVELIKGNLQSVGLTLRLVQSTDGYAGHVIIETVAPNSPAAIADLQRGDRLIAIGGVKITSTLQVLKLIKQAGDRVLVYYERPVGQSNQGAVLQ

PREX2_2, Q70Z35 = biological target: T11, PREX2_2, Q70Z35
T11 sequence (Q70Z35 672-764, limits assumed, looked up): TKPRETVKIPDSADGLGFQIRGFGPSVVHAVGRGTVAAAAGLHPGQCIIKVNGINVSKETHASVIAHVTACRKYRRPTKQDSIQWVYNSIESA

Q8IUC4 = biological target: Q8IUC4
Q8TEW0 = biological target: Q8TEW0
Q92614 = biological target: Q92614
Q96JB8 = biological target: Q96JB8
Q9C0E4 = biological target: Q9C0E4
Q9P227 = biological target: Q9P227
Q9ULJ8 = biological target: Q9ULJ8
Q9UMS6 = biological target: Q9UMS6
Q9Y3R0 = biological target: Q9Y3R0
SHANK2, Q9UPX8 = biological target: T12, SHANK2, Q9UPX8
T12 sequence (Q9UPX8 621-730, limits assumed, looked up): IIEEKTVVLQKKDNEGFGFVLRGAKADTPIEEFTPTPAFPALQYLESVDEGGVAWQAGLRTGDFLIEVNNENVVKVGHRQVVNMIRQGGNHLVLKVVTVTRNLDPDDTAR

Measured: pKd

B1: HPV51-E6, P26554 (peptide)
chain: RTRQRNETQV
below the threshold: INTU, Q9ULD6 | LNX2_4, Q8N448 | MAGI3_5, Q5TCQ9 | MLLT4, P55196 | MPDZ_11, O75970 | NHERF3_2, Q5T2W1 | O00233 | O00560 | O60759 | PARD6G, Q9BYG4 | PDLIM3, Q53GG5 | PDZD11, Q5EBL8 | PDZD2_6, O15018 | PDZD8, Q8NEN9 | PREX2_2, Q70Z35 | Q8IUC4 | Q8TEW0 | Q92614 | Q96JB8 | Q9C0E4 | Q9P227 | Q9ULJ8 | Q9UMS6 | Q9Y3R0 | SHANK2, Q9UPX8
